Source: publication PMC5339220

Key:
[1] = target: CSP1 (UniProt P60243); assay: EMSA; settings: EMSA: 1x LightShift binding buffer, 1 ug poly(dI-dC), 2.5% glycerol, 0.05% NP-40, 5 mM Mn2+, 5 mM Zn2+, 2-4 ug protein, 1 ng probe, 20 ul, 37 C, 30 min; pH not …
[2] = target: T1, ComED58E D58E (Streptococcus pneumoniae D39) (UniProt A0A0H2ZLR3); assay: EMSA; settings: EMSA: 1x LightShift binding buffer, 1 ug poly(dI-dC), 2.5% glycerol, 0.05% NP-40, 5 mM Mn2+, 5 mM Zn2+, 2-4 ug protein, 1 ng probe, 20 ul, 37 C, 30 min; pH not …
T1 sequence: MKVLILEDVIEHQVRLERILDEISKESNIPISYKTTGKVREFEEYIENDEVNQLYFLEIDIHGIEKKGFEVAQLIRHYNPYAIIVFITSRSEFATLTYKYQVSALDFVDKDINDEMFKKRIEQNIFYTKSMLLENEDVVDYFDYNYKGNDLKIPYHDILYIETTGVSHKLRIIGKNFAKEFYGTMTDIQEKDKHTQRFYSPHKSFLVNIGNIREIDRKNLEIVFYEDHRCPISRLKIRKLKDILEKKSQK

For “TACACATCTGCTTCTAAAATATTGTTAGAAAACGATTTGACTGTCCTGATCAATTTGTCATGTTCTTATTTCATTTTACTATATTTTTGGTTCGCGGGAAGTCTACTAAGATACTTAAAGATGCAGATAGTGAAAAAAGGTGTAGACATTACCGTAAAAAAGTGATATAATCGTAAGATGTTCAATGTATAGGTGTTAATCATGAGTAGACGTTTTAA (double strand) [C2 probe (cps promoter)]”, the binding [1] was “no binding” and the binding [2] was “binds”.
